pEC50: −log10 of the molar value.
Biological target: FcRn-biotin (UniProt P55899)
Experiment: ELISA

FcRn-biotin, sequence (P55899 24-297, chain 1 of 2): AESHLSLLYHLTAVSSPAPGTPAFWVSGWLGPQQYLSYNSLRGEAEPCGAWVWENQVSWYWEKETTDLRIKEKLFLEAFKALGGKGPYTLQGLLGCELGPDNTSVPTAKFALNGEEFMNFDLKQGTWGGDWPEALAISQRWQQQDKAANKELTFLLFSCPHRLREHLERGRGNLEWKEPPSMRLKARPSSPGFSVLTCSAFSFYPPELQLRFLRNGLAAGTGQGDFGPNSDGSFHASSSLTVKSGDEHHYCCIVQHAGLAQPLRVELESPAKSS
FcRn-biotin, sequence (main, as listed by the source, chain 2 of 2): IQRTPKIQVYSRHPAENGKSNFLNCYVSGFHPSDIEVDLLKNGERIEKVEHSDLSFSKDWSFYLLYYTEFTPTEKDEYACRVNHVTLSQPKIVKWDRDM

**Q.** With LC-V205C (from UniProt P01834 1-107) as the substance, how does the pEC50 read?
**A.** 6.50

From patent US20210069341A1
